Residue numbers refer to the chain shown, from its start.
T1: cyno CD40 on cyno spleen B cells (Macaca fascicularis (cynomolgus), UniProt P25942 21-277 (human entry))
T1 chain: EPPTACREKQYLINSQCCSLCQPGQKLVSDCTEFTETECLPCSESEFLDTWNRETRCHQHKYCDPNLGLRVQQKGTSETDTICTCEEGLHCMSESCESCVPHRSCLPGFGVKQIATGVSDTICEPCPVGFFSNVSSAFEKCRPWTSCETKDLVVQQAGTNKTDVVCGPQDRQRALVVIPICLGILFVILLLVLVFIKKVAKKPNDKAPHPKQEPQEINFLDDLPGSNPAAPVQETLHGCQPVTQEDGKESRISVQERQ

B1: C40B138 (antibody, human IgG4 S228P, lambda, F234A L235A)
heavy: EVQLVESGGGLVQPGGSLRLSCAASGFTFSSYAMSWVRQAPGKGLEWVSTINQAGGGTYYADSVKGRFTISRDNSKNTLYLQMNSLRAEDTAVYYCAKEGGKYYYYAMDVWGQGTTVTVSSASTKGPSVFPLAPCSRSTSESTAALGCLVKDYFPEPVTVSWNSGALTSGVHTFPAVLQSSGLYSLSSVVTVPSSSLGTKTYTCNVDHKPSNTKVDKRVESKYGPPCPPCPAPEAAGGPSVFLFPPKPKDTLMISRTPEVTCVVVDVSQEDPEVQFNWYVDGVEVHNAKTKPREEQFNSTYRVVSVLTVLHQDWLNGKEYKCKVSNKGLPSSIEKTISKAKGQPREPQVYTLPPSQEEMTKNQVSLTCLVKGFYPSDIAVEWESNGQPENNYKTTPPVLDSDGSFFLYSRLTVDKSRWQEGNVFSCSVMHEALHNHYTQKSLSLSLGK
light: SYELTQPPSVSVSPGQTASITCSGDKLGDKYAAWYQQKPGQSPVLVIYQDSRRPSGIPERFSGSNSGNTATLTISGTQAMDEADYYCQAWASSTVVFGGGTKLTVLGQPKAAPSVTLFPPSSEELQANKATLVCLISDFYPGAVTVAWKADSSPVKAGVETTTPSKQSNNKYAASSYLSLTPEQWKSHRSYSCQVTHEGSTVEKTVAPTECS
notes: IgG4PAA
B2: C40B179 (antibody, human IgG1, lambda)
heavy: EVQLVESGGGLVQPGGSLRLSCAASGFTFSSYAMSWVRQAPGKGLEWVSTINQAGGGTYYADSVKGRFTISRDNSKNTLYLQMNSLRAEDTAVYYCAKEGGKYYYYALDVWGQGTTVTVSSASTKGPSVFPLAPSSKSTSGGTAALGCLVKDYFPEPVTVSWNSGALTSGVHTFPAVLQSSGLYSLSSVVTVPSSSLGTQTYICNVNHKPSNTKVDKKVEPKSCDKTHTCPPCPAPEAAGASSVFLFPPKPKDTLMISRTPEVTCVVVDVSAEDPEVKFNWYVDGVEVHNAKTKPREEQYNSTYRVVSVLTVLHQDWLNGKEYKCKVSNKALPSSIEKTISKAKGQPREPQVYTLPPSREEMTKNQVSLTCLVKGFYPSDIAVEWESNGQPENNYKTTPPVLDSDGSFFLYSKLTVDKSRWQQGNVFSCSVMHEALHNHYTQKSLSLSPGK
light: B1 light
notes: IgG1sigma
B3: C40B183 (antibody, human IgG4 S228P, lambda, F234A L235A)
heavy: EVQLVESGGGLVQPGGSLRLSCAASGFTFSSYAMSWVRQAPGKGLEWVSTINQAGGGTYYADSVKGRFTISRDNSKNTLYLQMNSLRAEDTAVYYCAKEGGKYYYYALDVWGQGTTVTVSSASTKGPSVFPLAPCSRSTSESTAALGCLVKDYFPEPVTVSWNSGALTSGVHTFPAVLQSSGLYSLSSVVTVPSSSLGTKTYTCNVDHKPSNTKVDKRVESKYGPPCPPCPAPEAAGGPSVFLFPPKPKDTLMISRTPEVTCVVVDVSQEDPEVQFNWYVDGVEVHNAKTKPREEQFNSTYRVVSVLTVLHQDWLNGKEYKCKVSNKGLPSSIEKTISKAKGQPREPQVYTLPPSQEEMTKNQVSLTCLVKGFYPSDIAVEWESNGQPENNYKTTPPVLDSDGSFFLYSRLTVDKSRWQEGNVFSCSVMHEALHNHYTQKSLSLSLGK
light: B1 light
notes: IgG4PAA
B4: C40B131 (antibody, human IgG4 S228P, lambda, F234A L235A, V domains shown)
VH: EVQLVESGGGLVQPGGSLRLSCAASGFTFSSYAMSWVRQAPGKGLEWVSTINAAGGGTYYADSVKGRFTISRDNSKNTLYLQMNSLRAEDTAVYYCAKEGGKYYYYAMDVWGQGTTVTVSS
VL: SYELTQPPSVSVSPGQTASITCSGDKLGDKYAAWYQQKPGQSPVLVIYQDSRRPSGIPERFSGSNSGNTATLTISGTQAMDEADYYCQAWASSTVVFGGGTKLTVLG
notes: IgG4PAA
B5: C40B180 (antibody, human IgG4 S228P, lambda, F234A L235A)
heavy: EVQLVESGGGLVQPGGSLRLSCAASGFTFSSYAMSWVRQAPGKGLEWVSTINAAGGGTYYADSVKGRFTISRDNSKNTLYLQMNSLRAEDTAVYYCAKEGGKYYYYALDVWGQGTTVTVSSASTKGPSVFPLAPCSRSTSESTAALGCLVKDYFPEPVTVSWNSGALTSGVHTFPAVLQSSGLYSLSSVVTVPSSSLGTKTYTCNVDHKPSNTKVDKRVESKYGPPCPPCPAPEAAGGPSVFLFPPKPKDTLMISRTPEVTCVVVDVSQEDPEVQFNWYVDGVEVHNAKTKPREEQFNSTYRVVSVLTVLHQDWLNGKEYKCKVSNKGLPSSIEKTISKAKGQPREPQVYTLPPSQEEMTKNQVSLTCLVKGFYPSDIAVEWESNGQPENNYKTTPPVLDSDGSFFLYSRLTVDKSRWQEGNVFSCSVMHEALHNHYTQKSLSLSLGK
light: B1 light
notes: IgG4PAA
B6: C40B135 (antibody, human IgG4 S228P, lambda, F234A L235A)
heavy: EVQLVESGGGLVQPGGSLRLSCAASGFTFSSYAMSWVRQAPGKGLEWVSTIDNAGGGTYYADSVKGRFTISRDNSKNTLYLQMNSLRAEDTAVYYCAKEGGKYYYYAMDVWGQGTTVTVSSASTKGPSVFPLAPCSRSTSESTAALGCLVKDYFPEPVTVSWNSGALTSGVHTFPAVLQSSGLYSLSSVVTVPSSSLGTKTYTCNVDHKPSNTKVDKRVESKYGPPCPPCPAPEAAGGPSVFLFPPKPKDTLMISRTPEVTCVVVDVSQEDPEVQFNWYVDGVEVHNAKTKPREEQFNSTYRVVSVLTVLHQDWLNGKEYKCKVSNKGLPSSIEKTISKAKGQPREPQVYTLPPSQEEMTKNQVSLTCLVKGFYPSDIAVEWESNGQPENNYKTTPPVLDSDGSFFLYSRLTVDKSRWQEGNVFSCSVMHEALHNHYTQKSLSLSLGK
light: B1 light
notes: IgG4PAA
B7: C40B136 (antibody, human IgG4 S228P, lambda, F234A L235A)
heavy: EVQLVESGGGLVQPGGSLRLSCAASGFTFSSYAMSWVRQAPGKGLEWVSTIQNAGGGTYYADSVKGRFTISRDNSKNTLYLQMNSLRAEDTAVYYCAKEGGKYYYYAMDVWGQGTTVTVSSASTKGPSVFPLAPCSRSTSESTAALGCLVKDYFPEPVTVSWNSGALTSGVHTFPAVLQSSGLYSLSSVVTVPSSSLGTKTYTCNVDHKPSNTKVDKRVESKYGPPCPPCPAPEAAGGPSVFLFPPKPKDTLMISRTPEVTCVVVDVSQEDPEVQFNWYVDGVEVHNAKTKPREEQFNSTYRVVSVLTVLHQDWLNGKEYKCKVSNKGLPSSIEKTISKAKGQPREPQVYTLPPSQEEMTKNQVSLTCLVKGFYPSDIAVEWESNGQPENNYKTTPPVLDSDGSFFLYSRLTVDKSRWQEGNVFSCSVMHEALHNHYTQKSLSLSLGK
light: B1 light
notes: IgG4PAA
B8: Antibody D (antibody, human IgG1, kappa, L234A L235A, V domains shown)
VH: EVQLVESGGGLVKPGGSLRLSCAASGFTFSDYGMHWVRQAPGKGLEWVAYISSGNRIIYYADTVKGRFTISRDNAKNSLYLQMNSLRAEDTAVYYCARQDGYRYAMDYWGQGTLVTVSS
VL: DIVMTQSPDSLAVSLGEKVTINCKSSQSLLNSGNQKNYLTWHQQKPGQPPKLLIYWTSTRESGVPDRFSGSGSGTDFTLTISSLQAEDVAVYYCQNDYTYPLTFGGGTKVEIKR
notes: Benchmark; also called antibody B IgG1KOb (U.S. Pat. No. 8,591,900)
B9: C40B16 (antibody, human IgG1, lambda, V domains shown)
VH: B4 VH with K43R, A53N, A54S, Q82H
VL: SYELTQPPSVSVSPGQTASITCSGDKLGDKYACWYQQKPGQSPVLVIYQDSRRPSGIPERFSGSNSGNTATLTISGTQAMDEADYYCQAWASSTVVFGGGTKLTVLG
notes: Wild-type IgG1, lambda light chain; also called parental C40B16
B10: C40B125 (antibody, human IgG1, lambda)
heavy: B2 heavy with N52Q, Q53N, L108M
light: B1 light
notes: IgG1sigma
B11: C40B127 (antibody, human IgG1, lambda)
heavy: B2 heavy with L108M
light: B1 light
notes: IgG1sigma
B12: C40B124 (antibody, human IgG1, lambda)
heavy: B2 heavy with N52D, Q53N, L108M
light: B1 light
notes: IgG1sigma

Columns and labels:
[1] = molecular target: T2, human CD40 on cells (human tonsillar B cells, human dendritic cells, HEK-Blue CD40L cells) (human, UniProt P25942 21-277); test: cell-based or functional assay
[2] = molecular target: T1, cyno CD40 on cyno spleen B cells; test: cell-based or functional assay
[3] = molecular target: T3, human CD40 (analyte in SPR) (human, UniProt P25942 21-193); test: SPR, ProteOn XPR36, mAb captured on anti-human IgG Fc, CD40 as analyte, 25 C, 1:1 Langmuir
T3 construct: also called huCD40
Method: Affinity of the antibodies to human CD40 was assessed using Surface Plasmon Resonance (SPR) using a ProteOn XPR36 system (BioRad). […] Approximately 5000 RU (response units) of mAbs were immobilized. The kinetic experiments were performed at 25° C. in running buffer (DPBS+0.01% P20+100 μg/ml BSA). To perform kinetic experiments, 200 RU of mAbs were captured followed by injections of analytes (human or cyno CD40) at 5 concentrations (in a 4-fold serial dilution). The association phase was monitored for 3 minutes at 50 μL/min, then followed by 15 minutes of buffer flow (dissociation phase). The chip surface was regenerated with two 18 second pulses of 100 mM H₃PO₄ (Sigma, Cat#7961) at 100 μL/min.
The collected data were processed using ProteOn Manager software. First, the data was corrected for background using inter-spots. Then, double reference subtraction of the data was performed by using the buffer injection for analyte injections. The kinetic analysis of the data was performed using a Langmuir 1:1 binding model. The results were reported in the format of Ka (On-rate), Kd (Off-rate) and KD (equilibrium dissociation constant).

[4] = molecular target: T2, human CD40 on cells (human tonsillar B …); test: cell-based or functional assay; remark: listed apart in the source
[5] = molecular target: T3, human CD40 (analyte in SPR); test: affinity in benchmark table; method not restated (SPR ProteOn of Example 3 presumed)
[6] = molecular target: T2, human CD40 on cells (human tonsillar B …); test: cell-based or functional assay; remark: listed apart in the source
[7] = molecular target: T2, human CD40 on cells (human tonsillar B …); test: cell-based or functional assay; remark: listed apart in the source

Binder	IC50, mCD40L-driven human B-cell proliferation [1] [nM]	IC50, sCD40L-driven human B-cell proliferation [1] [nM]	IC50, sCD40L-driven cyno B-cell proliferation [2] [nM]	Kd [3] [nM]	koff [3] [s⁻¹]	kon [3] [M⁻¹ s⁻¹]	IC50, mCD40L-driven DC IL-12p40 production [4] [nM]	IC50, sCD40L-driven DC IL-12p40 production [4] [nM]	Kd [5] [nM]	IC50, B cell proliferation, membrane CD40L, human B-cells [6] [nM]	IC50, B cell proliferation, soluble CD40L, human B-cells [6] [nM]	IC50, human DC IL-12p40 production, membrane CD40L [7] [nM]	IC50, human DC IL-12p40 production, soluble CD40L [7] [nM]
B1	0.106	0.048	0.075	0.0599	0.000215	3.58e+06	0.341	0.262	–	–	–	–	–
B2	0.178	0.132	0.119	0.0933	0.000267	2.86e+06	0.297	0.184	0.0343	–	–	–	–
B3	0.14	0.103	0.11	0.121	0.00035	2.91e+06	0.291	0.208	0.107	–	–	–	–
B4	0.099	–	–	0.0812	0.000286	3.52e+06	0.323	0.33	–	–	–	–	–
B5	0.136	0.092	0.109	0.137	0.000366	2.67e+06	0.222	0.225	0.0599	–	–	–	–
B6	0.131	0.056	0.077	0.0496	0.000145	2.93e+06	0.43	0.329	–	–	–	–	–
B7	0.122	0.087	0.065	0.0343	0.000113	3.3e+06	0.379	0.246	–	–	–	–	–
B8	–	–	–	–	–	–	–	–	0.58	1.93	0.68	3.63	0.781
B9	–	–	–	0.0368	0.000157	4.27e+06	–	–	–	–	–	–	–
B10	0.128	0.088	0.083	0.0349	0.000136	3.89e+06	0.393	0.244	–	–	–	–	–
B11	0.111	0.073	0.066	0.0303	0.000115	3.79e+06	0.383	0.27	–	–	–	–	–
B12	0.118	–	–	0.0416	9.56e-05	2.3e+06	0.507	0.387	–	–	–	–	–
